To fix the notation:
B1: CR9114 gHC Fab VL A96V (Fab, V domains shown)
VH: QVQLVQSGAEVKKPGSSVKVSCKASGGTFSSYAISWVRQAPGQGLEWMGGIIPIFGTANYAQKFQGRVTITADKSTSTAYMELSSLRSEDTAVYYCARHGNYYYYYGMDVWGQGTTVTVSS
VL: SYVLTQPPAVSGTPGQRVTISCSGSDSNIGRRSVNWYQQFPGTAPKLLIYSNDQRPSVVPDRFSGSKSGTSASLAISGLQSEDEAEYYCAAWDDSLKGVVFGGGTQLTVL
notes: Kabat numbering; source: Expi293F, co-transfected, purified (CaptureSelect CH1-XL)
B2: CR9114 gHC Fab VL W91Y (Fab, V domains shown)
VH: B1 VH
VL: B1 VL with W92Y, V99A
notes: as for B1
B3: CR9114 gHC Fab VL A96S (Fab, V domains shown)
VH: B1 VH
VL: B1 VL with V99S
notes: as for B1
B4: CR9114 gHC Fab VL W91F (Fab, V domains shown)
VH: B1 VH
VL: B1 VL with W92F, V99A
notes: as for B1
B5: CR9114 gHC Fab VL A96R (Fab, V domains shown)
VH: B1 VH
VL: B1 VL with V99R
notes: as for B1
B6: CR9114 with germline heavy chain, Fab (Fab, V domains shown)
VH: B1 VH
VL: B1 VL with V99A
notes: also called CR9114 gHC; WT; source: Expi293F, co-transfected, purified (CaptureSelect CH1-XL)

Positions count from the first letter of the chain named.

The first assay has as its target HA protein from H1N1 A/Solomon Islands/3/2006 (Influenza A virus (A/Solomon …, UniProt A7Y8I1, strain)). The assay is described as follows: BLI. The conditions noted are these: both partners purified.
B1: the dissociation constant Kd was 15.8 µM. This lies in the double-digit micromolar range.

B2 had a dissociation constant Kd of 27.2 µM. This Kd lies about 1.7-fold higher than the previous one.

B3 showed a Kd of 1.6 µM.

Molecule B4 gave a Kd of 9.6 µM.

With B5, the affinity, expressed as Kd, was 21.5 µM.

A further assay concerns the target mini-HA #4900 (Designed influenza HA stem #4900, …, stabilised). As to the kind of experiment: BLI. The conditions noted are these: both partners purified.
B6 had a Kd of 6.2 µM.

As for B1, binding was characterised by a dissociation constant (Kd) of 3.8 µM. Compared with the last molecule, the Kd is about 1.6-fold lower.

As to B2, the affinity, expressed as Kd, was 45.7 µM.

The molecule B3 came in with a Kd of 1.9 µM.

As to B4, the dissociation constant Kd turned out to be 9.7 µM.

B5 yielded a Kd of 13 µM.

Values taken from paper PMC10872586 (Cell reports, 2023).
